In PMC5719984, “The Structure of a Conserved Domain of TamB Reveals a Hydrophobic β Taco Fold” (Structure(London, England:1993), 2017):

Molecular target: the molecule itself
Assay: SEC-MALS; 100 μl samples at 1-5 mg/ml on Superdex 200 10/300 GL in 20 mM Tris, 200 mM NaCl, 0.05 % LDAO pH 7.9, 0.6 ml/min

B1: TamB_(963-1138) (domain or fragment, E. coli K12, UniProt P39321 963-1138, looked up)
chain: MDVSPDVVFEATPNLFTLDGRVDVPWARIVVHDLPESAVGVSSDVVMLNDNLQPEEPKTASIPINSNLIVHVGNNVRIDAFGLKARLTGDLNVVQDKQGLGLNGQINIPEGRFHAYGQDLIVRKGELLFSGPPDQPYLNIEAIRNPDATEDDVIAGVRVTGLADEPKAEIFSDPAM
notes: whole TamB has 1,259 amino acids; Cloned into pET-21a via NdeI and XhoI; A selenomethionine-labelled form was used for phasing only; Construct as described by Josts et al., 2014
With B1 the “stoichiometry N” value was 2.
